Measured values from patent US20220372138A1 (IOMX THERAPEUTICS, published 2022).

T1: ECD of murine IGSF11, recombinant biotinylated (mouse, UniProt P0C673 23-240)
T1 construct: whole entry named; also called Mouse IGSF11
T1 sequence: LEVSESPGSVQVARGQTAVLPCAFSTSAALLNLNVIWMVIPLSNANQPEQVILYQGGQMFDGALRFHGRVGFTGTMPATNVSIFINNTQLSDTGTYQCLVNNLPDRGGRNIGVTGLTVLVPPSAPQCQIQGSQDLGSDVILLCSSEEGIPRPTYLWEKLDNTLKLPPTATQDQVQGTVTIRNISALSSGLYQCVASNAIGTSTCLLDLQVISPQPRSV

T2: extracellular domain (ECD) of human IGSF11 (VSIG3), recombinant (human, UniProt Q5DX21 23-241)
T2 construct: biotinylated where captured on streptavidin; tags of the reagent not always stated; also called IGSF11 (ECD domain); ECD-IGSF11
T2 sequence: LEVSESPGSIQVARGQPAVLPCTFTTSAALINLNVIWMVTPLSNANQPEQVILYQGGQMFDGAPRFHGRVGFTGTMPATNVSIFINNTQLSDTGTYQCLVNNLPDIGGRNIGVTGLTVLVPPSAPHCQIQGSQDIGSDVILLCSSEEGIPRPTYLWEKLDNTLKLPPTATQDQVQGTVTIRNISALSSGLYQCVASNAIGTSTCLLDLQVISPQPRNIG


Experiments:
[1] = target: T1, ECD of murine IGSF11, recombinant …; assay: ELISA RFU 0.1-0.5
[2] = target: T2, extracellular domain (ECD) of human …; assay: ELISA RFU 0.5-1.0
[3] = target: Streptavidin (UniProt P22629 37-163, limits assumed); assay: Fab ELISA
Streptavidin, sequence (P22629 37-163 limits assumed): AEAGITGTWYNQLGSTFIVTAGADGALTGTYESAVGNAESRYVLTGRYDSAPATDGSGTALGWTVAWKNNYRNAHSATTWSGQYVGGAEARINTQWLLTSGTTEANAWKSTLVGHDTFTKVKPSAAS
Description: In order to identify IGSF11-specific binding ABPs, monoclonal Fabs expressed from E. coli were generated from the enriched set of anti-IGFS11 antibody-expressing phage. After bacterial lysis, the Fabs were tested for their binding properties and cross-reactivity profile on recombinant ECD-IGSF11 (human, mouse and cynomolgus monkey) by standard ELISA. Briefly, biotinylated recombinant ECD-IGSF11 from human, mouse, or cynomolgus monkey were immobilized at 2 ug/mL on a streptavidin-coated 384-well Maxisorp plate. The surface was blocked with 2% (w/v) skim milk powder in PBST. After three wash cycles with PBST, a bacterial lysate of each of the anti-IGSF11 Fabs in 2% (w/v) skim milk powder was applied to the immobilized IGSF11 and incubated for 1 h. After removing all unbound Fab by 3 wash cycles with PBST, bound Fab antibodies were detected with a goat anti-human Fab antibody conjugated with horseradish peroxidase. After three wash cycles with PBST the ELISA was developed with TMB substrate.

Binder | ELISA binding signal (RFU) [1] [rfu] | ELISA binding signal (RFU) [2] [rfu] | A450 [3]
A-005 (scFv format) (scFv, V domains shown, scFv) VH: EVQLVESGGGLIQPGGSLRLSCAASGFTVSSNYMSWVRQAPGKGLEWVSVIYSGGSTYYADSVKGRFTISRDNSKNTLYLQMNSLRAEDTAVYYCARGNPYYYGDLQVNFDYWGQGTLVTVSS VL: QAVVTQEPSLTVSPGETVTLTCASSTGAVTSGYYPNWFQQRPGQAPRALIYSTSNKDSWTPARFSGSLLGGKAALTLSGVQPEDEAEYYCLLYYGGAWVFGGGTKLTVL | 0.1 to 0.5 | 0.5 to 1 | 
A-009 (scFv format) (scFv, V domains shown, scFv) VH: QVQLVQSGAEVKKPGSSVKVSCKASGGTFSSYAISWVRQAPGQGLEWMGGIIPIFGTANYAQKFQGRVTITADESTSTAYMELSSLRSEDTAVYYCARGRGFGELYFDYWGQGTLVTVSS VL: ETTLTQSPATLSVSPGERATLSCRASQGVRSNIAWYQQKPGQAPRLLIYDSSTRATGIPARFSGSGSGTEFTLTISSLQSEDFAVYSCQQYKNWPRTFGQGTKVEIK | 0.1 to 0.5 | 0.5 to 1 | 
C-007 (Fab format) (Fab, V domains shown, Fab from E. coli lysate) VH: not shown VL: ASVLTQPPSVSAAPGQKVTISCSGSSSNIGNNYVSWYQQLPGTAPKLLIYDNNKRPSGIPDRFSGSKSGTSATLGITGLQAEDEADYYCQLYEEEHSTWVFGGGTKLTVL |  |  | < 0.1
C-001 (Fab format) (Fab, V domains shown, Fab from E. coli lysate) VH: not shown VL: ASVLTQPPSVSAAPGQKVTISCSGSSSNIGNNYVSWYQQLPGTAPKLLIYDNNKRPSGIPDRFSGSKSGTSATLGITGLQAEDEADYYCGSWLEERSQYVFGGGTKLTVL |  |  | < 0.1
C-005 (Fab format) (Fab, V domains shown, Fab from E. coli lysate) VH: not shown VL: SYELTQPPSVSVSPGQTASITCSGDKLGDKYASWYQQKPGQSPVLVIYQDSKRPSGIPERFSGSNSGNTATLTISGTQAEDEADYYCHSYTGKPSQVVFGGGTKLTVL |  |  | < 0.1
C-008 (Fab format) (Fab, V domains shown, Fab from E. coli lysate) VH: EVQLLESGGGLVQPGGSLRLSCAASGFTFSSYAMSWVRQAPGKGLEWVSAISGSGGSTYYADSVKGRFTISRDNSKNTLYLQMNSLRAEDTAVYYCTTDNGHNRDWGQGTLVTVSS VL: ASVLTQPPSVSAAPGQKVTISCSGSSSNIGNNYVSWYQQLPGTAPKLLIYDNNKRPSGIPDRFSGSKSGTSATLGITGLQAEDEADYYCGTWTRSSGVFGGGTKLTVL |  |  | < 0.1
C-009 (Fab format) (Fab, V domains shown, Fab from E. coli lysate) VH: not shown VL: SYELTQPPSVSVSPGQTASITCSGDKLGDKYASWYQQKPGQSPVLVIYQDSKRPSGIPERFSGSNSGNTATLTISGTQAEDEADYYCQSYSGSSTLHVFGGGTKLTVL |  |  | < 0.1
A-002 (scFv format) (scFv, V domains shown, scFv) VH: EVQLVESGGGLIQPGGSLRLSCAASGFTVSSNYMSWVRQAPGKGLEWVSVIYSGGSTYYADSVKGRFTISRDNSKNTLYLQMNSLRAEDTAVYYCARGNPYYYGDLQVNFDYWGQGTLVTVSS VL: QAVVTQEPSLTVSPGGTVTPTCGSSTGAVTSGNLPNWFQQKPGQAPRALIYSTSNKHSWTPARISGSLLGGKAALTLSGVQPEDEAEYYCLLYYGGAWVFGGGTKLTVL | 0.1 to 0.5 | 0.5 to 1 | 
C-022 (Fab format) (Fab, V domains shown, Fab from E. coli lysate) VH: EVQLLESGGGLVQPGGSLRLSCAASGFTFSSYAMSWVRQAPGKGLEWVSAISGSGGSTYYADSVKGRFTISRDNSKNTLYLQMNSLRAEDTAAYYCARMAAGASWGTFDYWSQGTLVTVSS VL: DIQMTQSPSSLSASVGDRVTITCRASQSISSYLNWYQQKPGKAPKLLIYAASSLQSGVPSRFSGSGSGTDFTLTISSLQPEDFATYYCQQRSGSPLTFGQGTKVEIK |  |  | < 0.1
C-026 (Fab format) (Fab, V domains shown, Fab from E. coli lysate) VH: not shown VL: ASVLTQPPSVSAAPGQKVTISCSGSSSNIGNNYVSWYQQLPGTAPKLLIYDNNKRPSGIPDRFSGSKSGTSATLGITGLQAEDEADYYCASYSSETSGWVFGGGTKLTVL |  |  | < 0.1
